Patent publication US20180291101A1 (published 2018)
Each block holds one molecule with its values, some of them ahead of it.

Tests used:
[1] = biological target: monomeric His-tagged human FcRn (hFcRn) (JTA) (human) (UniProt P55899); assay: SPR, IgG amine-coupled, hFcRn (JTA) injected, 1:1 fit, pH 6.0
[2] = biological target: monomeric His-tagged human FcRn (hFcRn) (JTA) (human) (UniProt P55899); assay: SPR, IgG amine-coupled, hFcRn (JTA) injected, pH 6.0; first value of the cell (kinetic fit)
[3] = biological target: monomeric His-tagged human FcRn (hFcRn) (JTA) (human) (UniProt P55899); assay: SPR, IgG amine-coupled, hFcRn (JTA) injected, pH 6.0; second value of the cell (steady-state affinity model)
[4] = biological target: hFcRn in hFcRn TG mice (human FCGRT transgene) (human, UniProt P55899 24-365); assay: cell-based or functional assay
Sequence of hFcRn in hFcRn TG mice (human FCGRT transgene) (P55899 24-365): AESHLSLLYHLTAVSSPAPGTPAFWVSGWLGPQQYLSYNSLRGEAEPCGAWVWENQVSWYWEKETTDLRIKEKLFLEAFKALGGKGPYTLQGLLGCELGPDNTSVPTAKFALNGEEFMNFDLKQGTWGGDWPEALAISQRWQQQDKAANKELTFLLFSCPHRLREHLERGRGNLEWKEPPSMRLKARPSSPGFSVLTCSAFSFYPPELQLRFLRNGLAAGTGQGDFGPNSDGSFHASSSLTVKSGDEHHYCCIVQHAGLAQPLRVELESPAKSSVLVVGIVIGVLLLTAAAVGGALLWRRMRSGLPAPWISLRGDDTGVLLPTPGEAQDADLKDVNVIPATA

[5] = biological target: T1, recombinant human FcRn (Sino Biological Inc. Cat. No. CT009-H08H) (human, UniProt P55899 24-297; P61769 21-119); assay: competition ELISA vs biotinylated human serum IgG, pH 6.0
T1 construct: Bought protein; also called hFcRn (SINO); immobilized FcRn

[6] = biological target: T1, recombinant human FcRn (Sino Biological …); assay: competition ELISA vs biotinylated parent murine antibody, pH 7.4
[7] = biological target: T1, recombinant human FcRn (Sino Biological …); assay: competition ELISA vs biotinylated parent murine antibody, pH 6.0

- koff [1]: 0.0824 s⁻¹
- kon [1]: 108000 M⁻¹ s⁻¹
- Kd [2]: 763 nM
- Kd [3]: 1250 nM
Molecule: human IgG1 (hIgG1) (antibody)

- Kd [2]: 1010 nM
- Kd [3]: 970 nM
Molecule: human IgG4 (hIgG4) (antibody)

- plasma concentration of HuLys11 (human IgG1) in hFcRn TG mice after 20 mg/kg [4]: 3 fold reduction
B1: H3Vκ2 (H3VH1_Vκ2) IgG4 (antibody, V domains shown)
VH: QVQLVQSGAELKKPGASVKLSCKASGYTFTSYGISWVKQATGQGLEWIGEIYPRSGNTYYNEKFKGRATLTADKSTSTAYMELRSLRSEDSAVYFCARSTTVRPPGIWGTGTTVTVSS
VL: DIQMTQSPSSLSASVGDRVTITCKASDHINNWLAWYQQKPGQAPRLLISGATSLETGVPSRFSGSGTGKDYTLTISSLQPEDFATYYCQQYWSTPYTFGGGTKVEIK

- average relative IC50 (normalized to parent murine antibody) [5]: 0.53 ratio
- average relative IC50 (normalized to chimeric parent murine antibody) [6]: 0.89 ratio
- average relative IC50 (normalized to chimeric parent murine antibody) [7]: 0.87 ratio
B2: VH1_A8/Vκ1 IgG4 (antibody, V domains shown)
VH: QVQLVQSGAELKKPGASVKLSCKASGYTFTSYGISWVKQATGQGLEWIGEIYPRSGNTYYNEKFKGRATLTADKSTSTAYMELRSLKSEDSAVYFCARSTTVSPPAHWGTGTTVTVSS
VL: DIQMTQSPSYLSASVGDRVTITCKASDHINNWLAWYQQKPGQAPRLLISGATSLETGVPSRFSGSGTGKDYTLTISSLQTEDFATYYCQQYWSTPYTFGGGTKVEIK
notes: IgG4
